Experimental data as given in patent publication US20210403586A1, “MUTANT OF RANKL AND PHARMACEUTICAL COMPOSITION COMPRISING SAME FOR PREVENTING OR TREATING OSTEOPOROSIS” (INDUSTRY-ACADEMIC COOPERATION FOUNDATION CHOSUN UNIVERSITY, priority 2018, published 2021).
Entries after “also recorded” stand apart in the source; their conditions may differ.

Columns and labels:
BMMs = test: Real-time PCR of osteoclastogenesis mRNA in RANKL-induced BMMs; type: cell-based, mouse; details: mRANKL-MT3-induced BMMs compared with mRANKL-WT induced BMMs
Description: Meanwhile, for Real-time PCR, BMM cells were incubated with 30 ng/mL M-CSF and 75 ng/mL sRANKL (R&D Systems) or isolated RANKL in 6-well plates. Total RNA was extracted using TRIzol reagent (Invitrogen, Thermo Fisher Scientific, Inc.). The cDNA was synthesized from 2 μg total RNA using ReverTra Ace qPCR RT Master Mix (TOYOBO, Osaka, Japan). Real-time PCR was conducted on a CFX Connect RealTime PCR Detection System (Bio-Rad, Hercules, Calif., USA) in a reaction mixture (total volume, 20 μL) containing IQ SYBR Green Supermix (Bio-Rad), 10 pmol forward primer, 10 pmol reverse primer, and 1 μg cDNA.

[1] = system: bone marrow-derived monocytes (BMMs); test: Inhibition of wild type RANKL-induced TRAP activity by mutant RANKL in BMMs; type: cell-based, mouse; details: BMMs treated with mutant and wild type RANKL; even at a 3:1 wild type:mutant ratio
Description: To investigate the optimized inhibitory effect against wild type RANKL, bone marrow-derived monocytes (BMMs) were treated with purified mutant and wild type RANKL (FIG. 2E, F). […] Therefore, we used mRANKL-MT3 for subsequent experiments.
(§1) 4-week old male BALB/c mice were purchased from Orient Bio (Gwangju, Korea) and kept in an animal facility approved by the Chosun University Animal Management Committee (IACUC2017-A0002). After obtaining bone marrow cells from mice, bone marrow mononuclear cells were seeded into 96-well plates (1 Y 10^4 cells/well), and in the absence or presence of various concentrations of compounds, incubated with M-CSF (100 ng/mL) overnight before stimulation with RANKL (50 ng/well). The medium was replaced every other days. 6 days later, the cells were fixed with 4% paraformaldehyde, permeated in 0.1% Triton X-100, and washed with PBS. Then, TRAP activity (Sigma-Aldrich, St. Louis, Mo., USA) staining was performed. TRAP-positive multinuclear cells containing 5 or more nuclei were counted as osteoclasts.

[2] = system: bone marrow-derived monocytes (BMMs); test: TRAP analysis of osteoclastogenesis induced by RANKL variants in BMMs; type: cell-based, mouse; details: RANKL-treated primary BMM; listed as mtRANKL
Description: The RANKL-RANK binding sites are K180, D189, R190, H223, H224, which are conserved between humans and mice. We selected 4 mutant RANKLs to be purified. Their size corresponded to the wild type RANKL (39 kDa) (FIG. 2B). Tartrate-resistant acid […] (TRAP) activity was absent for all RANKLs even at 150 ng/mL (FIG. 2C, D).
as §1
To evaluate the effect of mtRANKL on osteoclastogenesis, TRAP analysis was performed on RANKL-treated primary bone marrow-derived macrophages (BMM) by the method described in Reference Example 2, and the results are shown in FIGS. 4B and 4C.

BALB/c mice = test: Bone destruction by injected mtRANKL, micro-CT; type: in vivo, mouse; details: subcutaneous 1.0 mg/kg three times a week
Description: The right femur of each mouse subjected to each experiment was incised and CT imaging was performed using a Quantum GX pCT imaging system (PerkinElmer, Hopkinton, Mass., USA) located at the Korea Basic Science Institute in Gwangju. As for the X-ray source, the field of view was set to 45 mm, 90 kV and […] (voxel size, 90 μm; scanning time, 14 minutes). CT imaging was performed using a Quantum GX 3D Viewer software. After scanning, image segmentation was performed in Analyze (AnalyzeDirect, Overland Park, Kans., USA). Briefly, the legs were segmented using semi-automatic and manual tools (e.g., object extractor, area expansion, and object separator) using volume editing tools. Then, a 3D rendering of the leg was created, and bone mineral density (BMD), bone volume (BV), bone volume percentage (%), and trabecular thickness were calculated using the ROI tools.
To investigate the bone-destructive effect of mtRANKL, 4-week-old male BALB/c mice (Orient Bio) were placed in a cage capable of accommodating up to 4 animals in a light-controlled environment ([…]) and provided with autoclaved water and both whole and powdered rodent diet (Purina, St. Louis, Mo., USA). Starting from 6 weeks of age, 9 mice were randomly divided into three groups, and each group was subcutaneously injected with wild-type RANKL (Amgen, Thousand Oaks, Calif., USA), mtRANKL purified in Reference Example 2, and saline three times a week (1.0 mg/kg). The trabecular bone in femoral neck was examined by Micro-CT analysis described in Reference Example 6.

RANK and LGR4 signaling = test: Western blots of RANK and LGR4 signaling pathway proteins, RANKL variants; type: cell-based, mouse
Description: Proteins were separated by SDS-PAGE and electropermeated into a nitrocellulose membrane (Bio-Rad). After blocking the membrane with 5% (weight/volume) skim milk in TBST [10 mM Tris (pH 7.5), 150 mM NaCl, 0.1% (vol/vol) Tween 20], each mouse serum for primary antibody in the blocking solution was examined. The membrane was washed three times with Tris buffered saline. […] peroxidase (HRP)-conjugated secondary antibody was diluted 1:5000 with TBST in 1% (wt/vol) skim milk powder. ECL_system (Amersham Pharmacia Biotech) was used as the membrane.
Primary antibodies: AKT (Cell Signaling Technology, 1:1000), phospho-AKT (Cell Signaling Technology, #9271S, 1:1000), p38 (Cell Signaling Technology, 9212S, 1:1000), phospho-p38 (Cell Signaling Technology, #9211S, 1:1000), ERK (Cell Signaling Technology, 9102S, 1:1000), phospho-ERK (Cell Signaling Technology, #9101S, 1:1000), JNK (Cell Signaling Technology, 9252S, 1:1000), phosphoJNK (Cell Signaling Technology, #9251S, 1:1000), GSK-3β (Cell Signaling Technology, 9315S, 1:1000), phosphoGSK-3β (Cell Signaling Technology, #9336S, 1:1000), Src (Cell Signaling Technology, 2108S, 1:1000), phosphoSrc (Cell Signaling Technology, #2105S, 1:1000), NF-KB p65 (Cell Signaling Technology, #3034, 1:1000), phosphop65 (Cell Signaling Technology, #3031, 1:1000), RANK (Cell Signaling Technology, 4845S, 1:1000), Gaq (Cell Signaling Technology, 14373S, 1:1000), LGR4 (MyBioSource, MBS468030, 1:500), 20112360C-1, and GAPDH (Santa-Cruz Biotechnology, 1:2500).
To investigate the interaction of mRANKL variants and RANK, the co-immunoprecipitation (Co-IP) assays were carried out using mRANKL-WT/mRANKL-MT3 and RANK/LGR4 (FIG. 12A). In addition, wild-type RANKL induced MAPK, AKT, NF-κB p65, and GSK-3 phosphorylation, which is involved in LGR4 signaling (FIG. 12B).

B1: mRANKL-MT3: mouse RANKL mutant: K180R, D189I, R190K, H223F, H224Y; nucleic acid SEQ ID NO: 3 (protein, UniProt O35235 158-316, looked up, variant K180R D189I R190K H223F H224Y)
chain: KPEAQPFAHLTINAASIPSGSHRVTLSSWYHIKGWAKISNMTLSNGKLRVNQDGFYYLYANICFRFYETSGSVPTDYLQLMVYVVKTSIKIPSSHNLMKGGSTKNWSGNSEFHFYSINVGGFFKLRAGEEISIQVSNPSLLDPDQDATYFGAFKVQDID
TRAP, NFATc1, and OSCAR mRNA expression (BMMs): down-regulated
inhibitory effect against wild type RANKL (TRAP activity) [1]: the most effective at inhibiting TRAP activity
number of TRAP-positive multinuclear osteoclasts / osteoclast differentiation [2]: did not induce osteoclast differentiation; also recorded: led to a reduction of TRAP-positive cells
trabecular bone by Micro-CT (osteoporosis) (BALB/c mice): no significant change was observed
GSK-3 phosphorylation (RANK and LGR4 signaling; BMMs, Western blot): induced
MAPK, AKT, and NF-κB p65 phosphorylation (RANK and LGR4 signaling; BMMs, Western blot): lower
src phosphorylation (RANK and LGR4 signaling; mRANKL-MT3-induced BMMs vs mRANKL-WT induced BMMs): significantly lower
